Test results published in the supplement of paper PMC10126150.
± gives the standard deviation of the averaged measurements.

Tested on: ATP
Test: switch fluorescence ratio, 500 uM ATP over buffer (Cy3 cluster intensity, sum of 5 cycles each) (fold (ratio)); higher = stronger signal-on switching upon ATP binding; sequences stand for … in TCGTCGGCAGCGTCAGATGTGTATAAGAGACAGTTTTTTTTTTTTTTTTTTTTTTTTT…TC
Details: aptamer strand: ATP DNA aptamer (quencher-CACCTGGGGGAGTATTGCGGAGGAAGG + anchor), 100 nM annealed; ATP concentration: 500 uM
In short: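 Five buffer/ATP imaging cycles were run on Cy3-labelled switching-strand clusters on a modified Illumina MiSeq flow-cell, with NaOH stripping and re-annealing between cycles. In each cycle, clusters annealed to 100 nM quencher-labelled ATP aptamer were imaged in selection buffer, then after 15 min with 500 uM ATP at 22 °C. Per cluster, the fluorescence ratio is summed target-cycle over summed buffer-cycle Cy3 intensity, averaged per switch-domain sequence. Only clusters within 100-1000 RFU were kept.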
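Also: ATP exposure 15 min at 22 °C before imaging.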

Row | Sequence | switch fluorescence ratio
1 | AAAAAAAAGC | 1.03 ± 0.038
2 | AAAAAAAGGA | 1.01 ± 0.021
3 | AAAAAAAGGC | 0.998 ± 0.042
4 | AAAAAAATCG | 1.01 ± 0.028
5 | AAAAAAATTT | 1 ± 0.029
6 | AAAAAAGTGC | 1.04 ± 0.051
7 | AAAAAAGTTC | 0.984 ± 0.022
8 | AAAAAATACG | 1.09 ± 0.091
9 | AAAAAATAG | 0.985 ± 0.013
10 | AAAAAATTAG | 0.996 ± 0.05
11 | AAAAAATTAT | 1.03 ± 0.087
12 | AAAAACGCTA | 1.14 ± 0.026
13 | AAAAACTAGT | 1.04 ± 0.035
14 | AAAAACTTGT | 1.03 ± 0.034
15 | AAAAAGAAGA | 0.976 ± 0.033
16 | AAAAAGCGGT | 0.984 ± 0.029
17 | AAAAAGCTCG | 0.985 ± 0.064
18 | AAAAAGGGGT | 1.15 ± 0.34
19 | AAAAAGGTTA | 0.998 ± 0.025
20 | AAAAAGTCAT | 0.967 ± 0.021
21 | AAAAATATTT | 1.61 ± 0.86
22 | AAAAATCGAG | 1.0015 ± 0.00019
23 | AAAAATCGGT | 0.996 ± 0.044
24 | AAAAATGCTT | 1.02 ± 0.066
25 | AAAAATGGGG | 0.972 ± 0.0098

Row | Sequence | switch fluorescence ratio
26 | AAAAATGGGT | 1 ± 0.016
27 | AAAAATGGTT | 1.02 ± 0.014
28 | AAAACAAATA | 0.9968 ± 0.0089
29 | AAAACAAGGA | 1.01 ± 0.041
30 | AAAACAGCCG | 0.957 ± 0.1
31 | AAAACCAGAC | 1.53 ± 0.078
32 | AAAACGAAAT | 1.02 ± 0.032
33 | AAAACGAATG | 1.05 ± 0.065
34 | AAAACGGATT | 0.977 ± 0.014
35 | AAAACGTGGG | 1.02 ± 0.022
36 | AAAACTCCGA | 1.07 ± 0.097
37 | AAAACTTCTT | 1 ± 0.013
38 | AAAACTTTGC | 1.02 ± 0.039
39 | AAAAGAATGT | 0.993 ± 0.021
40 | AAAAGACCCT | 1.04 ± 0.071
41 | AAAAGACGGG | 1.03 ± 0.022
42 | AAAAGAGGGG | 1 ± 0.031
43 | AAAAGATCAT | 0.999 ± 0.012
44 | AAAAGGACGG | 1.044 ± 0.0036
45 | AAAAGGAG | 1.01 ± 0.016
46 | AAAAGGAGGG | 0.999 ± 0.013
47 | AAAAGGGCGC | 1.03 ± 0.045
48 | AAAAGGGGG | 0.976 ± 0.018
49 | AAAAGGGGGT | 1.02 ± 0.049
50 | AAAAGGGGTC | 0.9959 ± 0.0053

Row | Sequence | switch fluorescence ratio
51 | AAAAGGGTCT | 1.02 ± 0.024
52 | AAAAGGTTAT | 1.02 ± 0.027
53 | AAAAGTAATT | 0.985 ± 0.021
54 | AAAAGTAGTT | 1.01 ± 0.038
55 | AAAAGTGTTT | 0.99 ± 0.033
56 | AAAATAATGG | 0.998 ± 0.04
57 | AAAATACTAT | 1.02 ± 0.026
58 | AAAATAGTGT | 1.013 ± 0.01
59 | AAAATATGCC | 1.02 ± 0.026
60 | AAAATATGGT | 1.01 ± 0.033
61 | AAAATCTGTT | 1.02 ± 0.061
62 | AAAATGCGCA | 1.02 ± 0.037
63 | AAAATGCGGA | 0.9951 ± 0.003
64 | AAAATGGCGT | 0.9694 ± 0.004
65 | AAAATGGGGT | 1.02 ± 0.052
66 | AAAATGGTAT | 1.01 ± 0.038
67 | AAAATGGTGT | 1.002 ± 0.0083
68 | AAAATGGTTT | 0.994 ± 0.037
69 | AAAATGTTCC | 1.19 ± 0.025
70 | AAAATTAACG | 1.04 ± 0.028
71 | AAAATTATCT | 1.01 ± 0.021
72 | AAAATTATGG | 0.968 ± 0.02
73 | AAAATTCTGG | 0.973 ± 0.034
74 | AAAATTGCAT | 0.993 ± 0.021
75 | AAAATTTAAT | 1.01 ± 0.016

Row | Sequence | switch fluorescence ratio
76 | AAAATTTAGG | 0.986 ± 0.03
77 | AAACAAAAAT | 1.01 ± 0.012
78 | AAACAATGTG | 0.972 ± 0.013
79 | AAACAGAATG | 0.975 ± 0.014
80 | AAACAGGTTG | 1.05 ± 0.019
81 | AAACATGGAG | 1 ± 0.019
82 | AAACATGGTG | 1.03 ± 0.022
83 | AAACCCTGAG | 1.14 ± 0.2
84 | AAACGATGTT | 1.02 ± 0.055
85 | AAACGCAACC | 1.57 ± 0.089
86 | AAACGCCTGC | 1.08 ± 0.026
87 | AAACGGAG | 1.007 ± 0.0081
88 | AAACGGATGG | 0.968 ± 0.016
89 | AAACGGATTC | 0.999 ± 0.052
90 | AAACGGGGGG | 0.99 ± 0.024
91 | AAACGGGGTA | 1.01 ± 0.033
92 | AAACGGGTTC | 1.01 ± 0.036
93 | AAACGGTAGC | 1.07 ± 0.017
94 | AAACGTACTT | 1.58 ± 0.086
95 | AAACGTGAGT | 0.985 ± 0.01
96 | AAACTAGCGG | 1.02 ± 0.016
97 | AAACTAGCTG | 1 ± 0.025
98 | AAACTCAACG | 1.08 ± 0.031
99 | AAACTCTCCA | 1.04 ± 0.02
100 | AAACTGGAT | 1.01 ± 0.033

Row | Sequence | switch fluorescence ratio
101 | AAACTGGGAT | 1.01 ± 0.033
102 | AAACTGTACT | 1.425 ± 0.0099
103 | AAACTTAGCA | 1.02 ± 0.012
104 | AAACTTCGGG | 1 ± 0.026
105 | AAACTTGGGG | 1 ± 0.035
106 | AAAGAAAGGT | 1.02 ± 0.024
107 | AAAGAAGTGG | 0.959 ± 0.027
108 | AAAGAATTCA | 1.05 ± 0.051
109 | AAAGACGCGG | 0.992 ± 0.015
110 | AAAGACGTTT | 1 ± 0.016
111 | AAAGAGCAAG | 1.11 ± 0.034
112 | AAAGATAGGC | 0.954 ± 0.072
113 | AAAGATCGGA | 0.983 ± 0.038
114 | AAAGATTGAC | 1.01 ± 0.08
115 | AAAGCACTAG | 1.11 ± 0.055
116 | AAAGCACTTT | 1.099 ± 0.0022
117 | AAAGCCCGCG | 0.961 ± 0.066
118 | AAAGCGGATT | 1 ± 0.018
119 | AAAGCTCGCT | 0.973 ± 0.015
120 | AAAGCTTTGG | 0.963 ± 0.021
121 | AAAGGAAATT | 1 ± 0.033
122 | AAAGGAGGTA | 1 ± 0.012
123 | AAAGGATCGG | 0.9923 ± 0.0056
124 | AAAGGCAAAG | 0.9971 ± 0.0082
125 | AAAGGCGTGG | 0.9555 ± 0.0064

Row | Sequence | switch fluorescence ratio
126 | AAAGGCTTGG | 0.992 ± 0.015
127 | AAAGGGAAAA | 1 ± 0.028
128 | AAAGGGACGT | 0.991 ± 0.051
129 | AAAGGGCAAT | 1.14 ± 0.18
130 | AAAGGGCGAT | 0.976 ± 0.011
131 | AAAGGGCGGC | 0.992 ± 0.018
132 | AAAGGGGCGC | 0.993 ± 0.035
133 | AAAGGGGGCA | 0.99 ± 0.031
134 | AAAGGGGGGC | 1 ± 0.057
135 | AAAGGGGGTC | 1.01 ± 0.039
136 | AAAGGGGTAT | 1.03 ± 0.027
137 | AAAGGGGTTG | 1.01 ± 0.072
138 | AAAGGGTAAG | 0.975 ± 0.015
139 | AAAGGGTCGA | 1.02 ± 0.03
140 | AAAGGGTGAG | 0.9726 ± 0.0064
141 | AAAGGGTGCT | 1.1 ± 0.015
142 | AAAGGTAACG | 1.001 ± 0.0021
143 | AAAGGTCAT | 0.9933 ± 0.0018
144 | AAAGGTGCCT | 1.05 ± 0.031
145 | AAAGGTGGCG | 1.07 ± 0.19
146 | AAAGGTTTAC | 0.978 ± 0.025
147 | AAAGTACTCG | 1.12 ± 0.0043
148 | AAAGTAGTGT | 1.024 ± 0.004
149 | AAAGTCATGT | 1.02 ± 0.05
150 | AAAGTCGCGC | 1.01 ± 0.018

Row | Sequence | switch fluorescence ratio
151 | AAAGTCTGAT | 0.959 ± 0.027
152 | AAAGTCTTGT | 1.01 ± 0.035
153 | AAAGTGAAGG | 0.996 ± 0.027
154 | AAAGTGGGCG | 1.13 ± 0.18
155 | AAAGTGTGCC | 0.962 ± 0.013
156 | AAAGTGTTGC | 1.05 ± 0.042
157 | AAAGTGTTGG | 1.02 ± 0.022
158 | AAAGTGTTTC | 0.986 ± 0.029
159 | AAAGTTATAC | 1.12 ± 0.037
160 | AAAGTTCGTA | 0.985 ± 0.039
161 | AAAGTTGCTA | 0.985 ± 0.019
162 | AAAGTTTACA | 1.03 ± 0.014
163 | AAAGTTTTCC | 1.08 ± 0.074
164 | AAATAAAAAG | 1.01 ± 0.027
165 | AAATAAACGG | 1.08 ± 0.14
166 | AAATAAGGAG | 1.02 ± 0.033
167 | AAATAATGAT | 1 ± 0.021
168 | AAATAATTCG | 0.997 ± 0.032
169 | AAATAATTTC | 1 ± 0.027
170 | AAATACAAGG | 1.15 ± 0.24
171 | AAATACGTAT | 1.04 ± 0.046
172 | AAATAGAGTT | 0.998 ± 0.013
173 | AAATATTTTA | 0.999 ± 0.015
174 | AAATCACGTC | 1.07 ± 0.019
175 | AAATCAGATA | 0.987 ± 0.033

Row | Sequence | switch fluorescence ratio
176 | AAATCCTATT | 0.982 ± 0.016
177 | AAATCGAAAC | 1.03 ± 0.038
178 | AAATCGGAAT | 1.25 ± 0.27
179 | AAATCGGCGG | 0.991 ± 0.05
180 | AAATCGGGTT | 1.15 ± 0.28
181 | AAATCGTTCC | 2.14 ± 0.082
182 | AAATCGTTTT | 0.972 ± 0.047
183 | AAATCTAGAC | 0.998 ± 0.011
184 | AAATCTCTTA | 0.997 ± 0.015
185 | AAATCTGCTG | 1 ± 0.061
186 | AAATCTGTCA | 1.03 ± 0.02
187 | AAATCTTAAA | 0.9917 ± 0.0023
188 | AAATGAATGG | 1.0177 ± 0.00097
189 | AAATGACAGC | 1.06 ± 0.037
190 | AAATGACGGC | 0.988 ± 0.15
191 | AAATGACGTC | 1.01 ± 0.023
192 | AAATGATTGG | 0.982 ± 0.019
193 | AAATGCCGTT | 0.982 ± 0.015
194 | AAATGCTAGC | 1.01 ± 0.039
195 | AAATGCTTAT | 1.04 ± 0.022
196 | AAATGGAACC | 1.04 ± 0.065
197 | AAATGGGAGC | 0.99 ± 0.031
198 | AAATGGGGAC | 0.9777 ± 0.0029
199 | AAATGGGGAT | 1.01 ± 0.032
200 | AAATGGGTAG | 0.9692 ± 0.0062
